Reference: article PMC9701221 (Nature Communications, 2022)

B1: bacteriophage SPP1 portal protein gp6 (natural protein, UniProt P54309 1-503, looked up)
chain: MADIYPLGKTHTEELNEIIVESAKEIAEPDTTMIQKLIDEHNPEPLLKGVRYYMCENDIEKKRRTYYDAAGQQLVDDTKTNNRTSHAWHKLFVDQKTQYLVGEPVTFTSDNKTLLEYVNELADDDFDDILNETVKNMSNKGIEYWHPFVDEEGEFDYVIFPAEEMIVVYKDNTRRDILFALRYYSYKGIMGEETQKAELYTDTHVYYYEKIDGVYQMDYSYGENNPRPHMTKGGQAIGWGRVPIIPFKNNEEMVSDLKFYKDLIDNYDSITSSTMDSFSDFQQIVYVLKNYDGENPKEFTANLRYHSVIKVSGDGGVDTLRAEIPVDSAAKELERIQDELYKSAQAVDNSPETIGGGATGPALENLYALLDLKANMAERKIRAGLRLFFWFFAEYLRNTGKGDFNPDKELTMTFTRTRIQNDSEIVQSLVQGVTGGIMSKETAVARNPFVQDPEEELARIEEEMNQYAEMQGNLLDDEGGDDDLEEDDPNAGAAESGGAGQVS
notes: Portal protein gp6 of bacteriophage SPP1, 503 residues; native protein from the virion connector; traced in the cryoEM map from residue 28 to 470; Dodecamer in the connector gp6(12)gp15(12)gp16(6); the assembly-naive recombinant form (PDB 2JES) is a 13-mer; also called connector gp6; gp6 12-mer; source: CsCl gradient, EDTA disruption, glycerol gradient; copies: 12
B2: bacteriophage SPP1 head completion protein gp16 (stopper protein) (natural protein, UniProt O48446 1-109, looked up)
chain: MYEEFPDVITFQSYVEQSNGEGGKTYKWVDEFTAAAHVQPISQEEYYKAQQLQTPIGYNIYTPYDDRIDKKMRVIYRGKIVTFIGDPVDLSGLQEITRIKGKEDGAYVG
notes: Head completion (stopper) protein gp16 of bacteriophage SPP1; native protein from the virion connector; Hexamer in the connector; monomer in solution before assembly (PDB 2KCA, cited); source: CsCl gradient, EDTA disruption, glycerol gradient

Experiments:
Experiment in all cases: cryo-EM structure; single particle cryoEM of the native gp6gp15gp16 connector extracted from tailless DNA-filled capsids, 0.64 mg/mL in 0.5x TBT (Tris-Cl pH 7.5, NaCl, MgCl2); C6 symmetry in the final refinement; 2.7 Å (FSC 0.5)
[1] = molecular target: the molecule itself
[2] = molecular target: B2; conditions: both partners purified
[3] = molecular target: B1; conditions: both partners purified

Binder	stoichiometry N [1]	binding result [2]	binding result [3]
B1	12	–	–
bacteriophage SPP1 head completion protein gp15 (adaptor protein) (natural protein, UniProt Q38584 1-102, looked up, Head completion (adaptor) protein gp15 of bacteriophage SPP1; native protein from the virion connector; C-terminal residues ArgLysMetAlaArg, last residue named Arg102; Dodecamer in the connector; monomer in solution before assembly (PDB 2KBZ, cited); source: CsCl gradient, EDTA disruption, glycerol gradient; copies: 12) MDIQRVKRLLSITNDKHDEYLTEMVPLLVEFAKDECHNPFIDKDGNESIPSGVLIFVAKAAQFYMTNAGLTGRSMDTVSYNFATEIPSTILKKLNPYRKMAR	12	binds	binds
B2	6	–	–
